Blank lines part the entries; values can stand above or below the molecule they belong to.
Legend:
[1] = molecular target: GST-Med19 (Drosophila melanogaster) (UniProt Q9VVL6); experiment: pull-down; 35S-labelled Hox / homeodomain peptides on immobilised GST-Med19 (Figures 1E, S2)
[2] = molecular target: multiple GST-Hox proteins (Drosophila melanogaster); experiment: pull-down; 35S-labelled Med19 (full length or deleted versions) probing immobilised GST-Hox fusions or GST-HDAntp; standard conditions, essentially as in ref. 68 (Figures 1A, 5A)

percent of input bound [1]: 7 % of input
Molecule: HD region of Drosophila Ubx, with its hexapeptide (HX), linker region and HD (wild-type) (domain or fragment)

percent of input bound [1]: 5 % of input
Molecule: HD region of crustacean Artemia Ubx (linker-shortened C-terminal region) (domain or fragment)

percent of input bound [2]: > 5 % of input
B1: 35S-labelled full-length Med19 (Mediator complex subunit 19) (natural protein)
chain: MMSNYGNMMDSPKSSPHGGGRSPVVARQDSSGTLKTTISLGKTPTIIHTGPFYSMKEPPAKAELTGDKDLMTEYGLHHTLTKFKEKKFKESLASFLQNIPGINDLITHPVENSTLRSVIEKPPIGGKELLPLTPVQLAGFRLHPGPLPEQYRTTYVTPARKHKNKHKKQKHKDGVTTGQESTLLDSAGLETYEKKHKKQKRHEDDKERKKRKKEKKRKKKNQSPEPGVGLLPGGASLGGAAGVMGATSLGSLGGGPGGPGLSSLSASMGPGVVGNMNSFSSSMQMQQQQQMPMQQQQMSSGGLLGSVLGTSGGPGGGGGGGGGGGGGVGGSLLMSQF
modifications: 35S-labelled

Source: paper PMC4006704
